First the molecules themselves.
B1: VF2468 69 MTX2 (dsDNA)
DNA 1: AGCAGCGGCGGCTGCAGTGAGGC
DNA 2: GCCTCACTGCAGCCGCCGCTGCT
B2: VF2468 38 (dsDNA)
DNA 1: AGCATCGTCTTCTGTGAGTGAGTA
DNA 2: TACTCACTCACAGAAGACGATGCT
B3: VF2468 62 (dsDNA)
DNA 1: TGCAGCGGCGTAGGGGAGTGAGGA
DNA 2: TCCTCACTCCCCTACGCCGCTGCA
B4: VF2468 66 GBF1 (dsDNA)
DNA 1: AGCAACGTCCATAGTGTGTGAGAA
DNA 2: TTCTCACACACTATGGACGTTGCT
B5: CCR5-224 21 (dsDNA)
DNA 1: GTCAACCTCAACACCTACAGACTGCAAAAG
DNA 2: CTTTTGCAGTCTGTAGGTGTTGAGGTTGAC
B6: CCR5-224 9 (dsDNA)
DNA 1: GTCATCTTCATCAAAAGGAACTGCAAAAC
DNA 2: GTTTTGCAGTTCCTTTTGATGAAGATGAC
B7: CCR5-224 15 KCNB2 (dsDNA)
DNA 1: ATGTTCCTCATCTCCCGAAACTGCAAATG
DNA 2: CATTTGCAGTTTCGGGAGATGAGGAACAT
B8: CCR5-224 11 TACR3 (dsDNA)
DNA 1: GTCATCTTCATCAGCATAAACTGTAAAGT
DNA 2: ACTTTACAGTTTATGCTGATGAAGATGAC
B9: CCR5-224 14 (dsDNA)
DNA 1: GTCCTGCTCAGCAAAAGAAACTGAAAAAG
DNA 2: CTTTTTCAGTTTCTTTTGCTGAGCAGGAC
B10: CCR5-224 25 WBSCR17 (dsDNA)
DNA 1: GTTATCCTCAGCAAACTAAAACTGGAACAG
DNA 2: CTGTTCCAGTTTTAGTTTGCTGAGGATAAC
B11: CCR5-224 16 (dsDNA)
DNA 1: GTCTTCCTGATGCTACCAAACTGGAAAAG
DNA 2: CTTTTCCAGTTTGGTAGCATCAGGAAGAC
B12: VF2468 24 (dsDNA)
DNA 1: AGCAGCGTATCACATGAGTGAGGG
DNA 2: CCCTCACTCATGTGATACGCTGCT
B13: VF2468 18 (dsDNA)
DNA 1: AGCAGAGTCAGACTTGAGTGAGGT
DNA 2: ACCTCACTCAAGTCTGACTCTGCT
B14: VF2468 79 (dsDNA)
DNA 1: AGCACCGTGGCTTCGAGTGAGGC
DNA 2: GCCTCACTCGAAGCCACGGTGCT
B15: VF2468 11 (dsDNA)
DNA 1: AGCAGCGTCTCCCTTGAGTGATGG
DNA 2: CCATCACTCAAGGGAGACGCTGCT
B16: VF2468 35 (dsDNA)
DNA 1: AGCAGTGTCCTAAGGGGGTGAGGA
DNA 2: TCCTCACCCCCTTAGGACACTGCT
B17: VF2468 68 (dsDNA)
DNA 1: AGCACCGTCCCCCTCAGTGAGGC
DNA 2: GCCTCACTGAGGGGGACGGTGCT
B18: VF2468 19 TTC4 (dsDNA)
DNA 1: AGCAGAGTCTCTGAGAGTGAGGC
DNA 2: GCCTCACTCTCAGAGACTCTGCT
B19: VF2468 73 (dsDNA)
DNA 1: AGCAAAGTCTGTACTGAGTGAGGG
DNA 2: CCCTCACTCAGTACAGACTTTGCT
B20: VF2468 78 (dsDNA)
DNA 1: AGCAATGTCAAAAAGAGTGAGGC
DNA 2: GCCTCACTCTTTTTGACATTGCT
B21: VF2468 28 (dsDNA)
DNA 1: AGCAGCTTCTCCTGGGAGTGAGGG
DNA 2: CCCTCACTCCCAGGAGAAGCTGCT
B22: VF2468 15 (dsDNA)
DNA 1: AGCAACGTCATATTCAGTGAGGA
DNA 2: TCCTCACTGAATATGACGTTGCT
B23: VF2468 23 (dsDNA)
DNA 1: AGCAGCGACGCCTGGGAGTGAGGT
DNA 2: ACCTCACTCCCAGGCGTCGCTGCT
B24: VF2468 72 (dsDNA)
DNA 1: AGAAACGTCGTGGAGGAGTGAGGG
DNA 2: CCCTCACTCCTCCACGACGTTTCT
B25: VF2468 29 (dsDNA)
DNA 1: AGCAGGGTCAGGGCTGAGTGAGGC
DNA 2: GCCTCACTCAGCCCTGACCCTGCT

Sequence of CCR5-224 ZFN heterodimer (P14870 other isoform, or with tags, fused parts or gaps, chain 1 of 2): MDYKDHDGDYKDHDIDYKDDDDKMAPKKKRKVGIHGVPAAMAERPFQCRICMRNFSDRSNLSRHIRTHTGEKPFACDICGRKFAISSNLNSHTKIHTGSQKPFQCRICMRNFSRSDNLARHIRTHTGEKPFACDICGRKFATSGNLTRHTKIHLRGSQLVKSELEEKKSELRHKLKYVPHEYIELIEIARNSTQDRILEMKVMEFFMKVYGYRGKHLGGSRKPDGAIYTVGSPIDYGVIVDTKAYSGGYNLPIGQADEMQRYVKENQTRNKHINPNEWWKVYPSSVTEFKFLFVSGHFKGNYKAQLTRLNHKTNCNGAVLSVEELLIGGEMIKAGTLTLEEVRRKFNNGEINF
Sequence of CCR5-224 ZFN heterodimer (P14870 other isoform, or with tags, fused parts or gaps, chain 2 of 2): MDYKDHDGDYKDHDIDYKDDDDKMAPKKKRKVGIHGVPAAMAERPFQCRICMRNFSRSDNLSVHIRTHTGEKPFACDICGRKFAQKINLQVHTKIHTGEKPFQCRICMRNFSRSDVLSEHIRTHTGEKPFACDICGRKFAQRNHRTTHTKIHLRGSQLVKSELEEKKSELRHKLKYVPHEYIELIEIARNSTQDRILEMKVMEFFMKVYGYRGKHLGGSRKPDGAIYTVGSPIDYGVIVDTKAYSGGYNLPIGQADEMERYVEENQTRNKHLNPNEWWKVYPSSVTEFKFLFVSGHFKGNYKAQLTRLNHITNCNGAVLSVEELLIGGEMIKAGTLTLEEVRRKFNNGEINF
T1 sequence (P14870 other isoform, or with tags, fused parts or gaps, chain 1 of 2): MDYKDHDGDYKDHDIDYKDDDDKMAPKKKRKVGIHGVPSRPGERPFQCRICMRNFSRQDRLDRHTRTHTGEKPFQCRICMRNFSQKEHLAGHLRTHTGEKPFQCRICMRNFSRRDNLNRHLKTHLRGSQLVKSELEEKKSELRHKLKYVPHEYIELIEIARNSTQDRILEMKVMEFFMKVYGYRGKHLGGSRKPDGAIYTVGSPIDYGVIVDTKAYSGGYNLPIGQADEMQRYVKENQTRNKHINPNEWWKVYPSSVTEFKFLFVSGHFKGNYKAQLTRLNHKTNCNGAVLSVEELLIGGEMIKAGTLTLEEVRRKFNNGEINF
T1 sequence (P14870 other isoform, or with tags, fused parts or gaps, chain 2 of 2): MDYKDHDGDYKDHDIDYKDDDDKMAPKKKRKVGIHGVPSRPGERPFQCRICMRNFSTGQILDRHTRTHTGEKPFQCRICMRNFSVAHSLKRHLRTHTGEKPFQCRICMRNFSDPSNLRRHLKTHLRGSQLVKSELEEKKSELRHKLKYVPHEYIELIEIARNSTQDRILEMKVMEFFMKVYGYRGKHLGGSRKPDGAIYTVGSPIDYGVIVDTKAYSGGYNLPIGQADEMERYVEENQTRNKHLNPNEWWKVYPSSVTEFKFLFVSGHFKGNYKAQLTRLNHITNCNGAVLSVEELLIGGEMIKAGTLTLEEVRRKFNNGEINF

The target of one data set is T1, VF2468 ZFN heterodimer (UniProt P14870;P14870 SEQ:1-324,SEQ:1-324). Description: cell_activity; K562; printed value. To be noted: tags: FokI obligate heterodimer; in vitro selection used in vitro-translated protein; chain copies: 2 (stated heterodimer). Here is the method:
(§1) PCR for 37 potential CCR5-224 substrates and 97 potential VF2468 substrates was performed with Phusion DNA Polymerase (NEB) and primers “[ZFN] […] fwd” and “[ZFN] […] rev” (Table 9) in 1× Phusion HF Buffer supplemented with 3% DMSO. Primers were designed using Primer3³³. The amplified DNA was purified with the Qiagen PCR Purification Kit, eluted with 10 mM Tris-HCl, pH 8.5, and quantified by 1K Chip on a LabChip GX instrument (Caliper Life Sciences) and combined into separate equimolar pools for the catalytically active and empty vector control samples. PCR products were not obtained for 3 CCR5 sites and 7 VF2468 sites, which excluded these samples from further analysis. Multiplexed Illumina library preparation was performed according to the manufacturer's specifications, except that AMPure XP beads (Agencourt) were used for purification following adapter ligation and PCR enrichment steps. Illumina indices 11 (“GGCTAC”) and 12 (“CTTGTA”) were used for ZFN-treated libraries while indices 4 (“TGACCA”) and 6 (“GCCAAT”) were used for the empty vector controls. Library concentrations were quantified by KAPA Library Quantification Kit for Illumina Genome Analyzer Platform (Kapa Biosystems). Equal amounts of the barcoded libraries derived from active- and empty vector-treated cells were diluted to 10 nM and subjected to single read sequencing on an Illumina HiSeq 2000 at the Harvard University FAS Center for Systems Biology Core facility. Sequences were analyzed using Protocol 9 for active ZFN samples and empty vector controls.
B1 showed an activity of 0.3 % indels.
On the same count and under the same terms, as for B2, the figure is 0.082 % indels.
On the same count and under the same terms, as for B3, the figure is 0.085 % indels; as for B4, 0.64 % indels.

A further data set concerns the target CCR5-224 ZFN heterodimer (UniProt P14870; SEQ:1-353,SEQ:1-352). Description: cell_activity; K562; in vitro selected at 4 nM. To be noted: tags: FokI obligate heterodimer; in vitro selection used in vitro-translated protein; chain copies: 2 (stated heterodimer). The protocol: as §1
For B5, the activity was 0.06 % indels.
As for B6, the activity came out at 0.035 % indels.
On the same count and under the same terms, as for B7, the figure is 0.071 % indels; as for B8, 0.34 % indels.
In turn, B9 returned an activity of 0.025 % indels.
Same read-out and setting: as for B10, the figure is 0.12 % indels; as for B11, 0.019 % indels.

The next data set deals with T1, VF2468 ZFN heterodimer. Nature of the data set: cell_activity; K562. To be noted: tags: FokI obligate heterodimer; in vitro selection used in vitro-translated protein; chain copies: 2 (stated heterodimer). The protocol: as §1
Take B12: the activity is 0.44 % indels.
Same read-out and setting: as for B13, the figure is 0.1 % indels; as for B14, 0.029 % indels.
On the same count and under the same terms, as for B15, the figure is 0.04 % indels.
The same measure, in the same setting: as for B16, the figure is 0.13 % indels; as for B17, 0.28 % indels; as for B18, 0.086 % indels.
On to B19, for which the activity stood at 1.3 % indels.
Same read-out and setting: as for B20, the figure is 0.15 % indels; as for B21, 0.32 % indels.
Same read-out and setting: as for B22, the figure is 0.06 % indels.
Regarding B23, the activity was 1.1 % indels.
Still for that read-out and setting: as for B24, the figure is 0.042 % indels; as for B25, 0.2 % indels.

Source of the values: US20200010818, “EVALUATION AND IMPROVEMENT OF NUCLEASE CLEAVAGE SPECIFICITY” (President and Fellows of Harvard College, published 2020).
